± gives the standard error. For some assays here: Variants at the floor of the assay were thinned out.
B1: glmS ribozyme (parent)
chain: AUAAAAGCGCCAGAACUACAGAAAUGUAGUUGACGAGGAGGAGGUUUAUCGAAUUUUCGGCGGAUGCCUCCAAA

How the values were obtained:
Conditions in all cases: with glucosamine-6-phosphate
glucosamine-6-phosphate [1] = variants of: B1; assay: kcat; higher = faster cleavage; RNA array
Method in brief: (§1)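 Weighted Michaelis–Menten fits across concentrations supplied kcat and KM, based on kobs from one- or two-exponential decay fits to normalised per-tile medians. The data came from barcoded ribozyme variants transcribed in situ by E. coli RNA polymerase on sequenced MiSeq chips and tracked at 37 °C by a hybridised Cy3 probe. Glucosamine-6-phosphate (40 μM to 10 mM) in HEPES/KCl/Mg(OAc)2 buffer was flowed in.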

glucosamine-6-phosphate [2] = variants of: B1; assay: KM; higher = weaker cofactor use; RNA array
Method in brief: as §1

glucosamine-6-phosphate [3] = variants of: B1; assay: self-cleavage kobs at 10000 uM GlcN6P; higher = faster cleavage; RNA array
Method in brief: as §1

glucosamine-6-phosphate [4] = variants of: B1; assay: self-cleavage kobs at 40 uM GlcN6P; higher = faster cleavage; RNA array
Method in brief: as §1

glucosamine-6-phosphate [5] = variants of: B1; assay: self-cleavage kobs at 160 uM GlcN6P; higher = faster cleavage; RNA array
Method in brief: as §1

glucosamine-6-phosphate [6] = variants of: B1; assay: self-cleavage kobs at 640 uM GlcN6P; higher = faster cleavage; RNA array
Method in brief: as §1

glucosamine-6-phosphate [7] = variants of: B1; assay: self-cleavage kobs at 2500 uM GlcN6P; higher = faster cleavage; RNA array
Method in brief: as §1

A33C U65A
kcat (glucosamine-6-phosphate [1]): 4.76e-05 ± 2.3e-06 s⁻¹
KM (glucosamine-6-phosphate [2]): 0.617 ± 0.24 mM
self-cleavage kobs at 10000 uM GlcN6P (glucosamine-6-phosphate [3]): 4.47e-05 ± 1.6e-05 s⁻¹

A33U A53U G66A
kcat (glucosamine-6-phosphate [1]): 7.62e-05 ± 1.7e-06 s⁻¹

G32A G60A
kcat (glucosamine-6-phosphate [1]): < 1e-05 s⁻¹
self-cleavage kobs at 40 uM GlcN6P (glucosamine-6-phosphate [4]): < 1e-05 s⁻¹
self-cleavage kobs at 160 uM GlcN6P (glucosamine-6-phosphate [5]): < 1e-05 s⁻¹
self-cleavage kobs at 640 uM GlcN6P (glucosamine-6-phosphate [6]): < 1e-05 s⁻¹

G32A G60C
kcat (glucosamine-6-phosphate [1]): < 1e-05 s⁻¹
KM (glucosamine-6-phosphate [2]): 0.183 ± 0.055 mM
self-cleavage kobs at 10000 uM GlcN6P (glucosamine-6-phosphate [3]): < 1e-05 s⁻¹

U31C U47A
kcat (glucosamine-6-phosphate [1]): 0.00379 ± 0.00061 s⁻¹
KM (glucosamine-6-phosphate [2]): 1.8 ± 0.46 mM
self-cleavage kobs at 40 uM GlcN6P (glucosamine-6-phosphate [4]): 8.24e-05 ± 1.4e-05 s⁻¹
self-cleavage kobs at 160 uM GlcN6P (glucosamine-6-phosphate [5]): 0.000354 ± 7.7e-05 s⁻¹
self-cleavage kobs at 640 uM GlcN6P (glucosamine-6-phosphate [6]): 0.00107 ± 0.00022 s⁻¹
self-cleavage kobs at 2500 uM GlcN6P (glucosamine-6-phosphate [7]): 0.00178 ± 0.00031 s⁻¹
self-cleavage kobs at 10000 uM GlcN6P (glucosamine-6-phosphate [3]): 0.00367 ± 0.00049 s⁻¹

A36G U69G
kcat (glucosamine-6-phosphate [1]): 2.8e-05 ± 8.7e-06 s⁻¹
self-cleavage kobs at 160 uM GlcN6P (glucosamine-6-phosphate [5]): 3.18e-05 ± 1.6e-05 s⁻¹
self-cleavage kobs at 640 uM GlcN6P (glucosamine-6-phosphate [6]): 4.85e-05 ± 1.9e-05 s⁻¹

A33U U49A C58U
kcat (glucosamine-6-phosphate [1]): < 1e-05 s⁻¹
self-cleavage kobs at 40 uM GlcN6P (glucosamine-6-phosphate [4]): < 1e-05 s⁻¹

G32U C50G C71G
kcat (glucosamine-6-phosphate [1]): 0.000195 ± 2.4e-05 s⁻¹
self-cleavage kobs at 40 uM GlcN6P (glucosamine-6-phosphate [4]): 0.000189 ± 5.1e-05 s⁻¹
self-cleavage kobs at 640 uM GlcN6P (glucosamine-6-phosphate [6]): 0.000151 ± 6.3e-05 s⁻¹
self-cleavage kobs at 2500 uM GlcN6P (glucosamine-6-phosphate [7]): 0.000194 ± 6.4e-05 s⁻¹
self-cleavage kobs at 10000 uM GlcN6P (glucosamine-6-phosphate [3]): 0.000231 ± 5.8e-05 s⁻¹

U31G U65G
kcat (glucosamine-6-phosphate [1]): 0.00259 ± 0.00018 s⁻¹
KM (glucosamine-6-phosphate [2]): 4.14 ± 0.44 mM
self-cleavage kobs at 160 uM GlcN6P (glucosamine-6-phosphate [5]): 9.35e-05 ± 1.7e-05 s⁻¹
self-cleavage kobs at 640 uM GlcN6P (glucosamine-6-phosphate [6]): 0.000375 ± 5.5e-05 s⁻¹
self-cleavage kobs at 2500 uM GlcN6P (glucosamine-6-phosphate [7]): 0.000924 ± 0.00017 s⁻¹
self-cleavage kobs at 10000 uM GlcN6P (glucosamine-6-phosphate [3]): 0.00184 ± 0.00019 s⁻¹

G32A A53U
kcat (glucosamine-6-phosphate [1]): 0.00208 ± 0.00084 s⁻¹
self-cleavage kobs at 40 uM GlcN6P (glucosamine-6-phosphate [4]): 3.74e-05 ± 9.9e-06 s⁻¹
self-cleavage kobs at 160 uM GlcN6P (glucosamine-6-phosphate [5]): 0.000175 ± 3.9e-05 s⁻¹
self-cleavage kobs at 640 uM GlcN6P (glucosamine-6-phosphate [6]): 0.000595 ± 0.0001 s⁻¹
self-cleavage kobs at 2500 uM GlcN6P (glucosamine-6-phosphate [7]): 0.00067 ± 0.00016 s⁻¹
self-cleavage kobs at 10000 uM GlcN6P (glucosamine-6-phosphate [3]): 0.00228 ± 0.0003 s⁻¹

U31C U57G C67A
kcat (glucosamine-6-phosphate [1]): < 1e-05 s⁻¹
self-cleavage kobs at 160 uM GlcN6P (glucosamine-6-phosphate [5]): < 1e-05 s⁻¹

G32A A39C
kcat (glucosamine-6-phosphate [1]): 0.00032 ± 6.8e-05 s⁻¹
KM (glucosamine-6-phosphate [2]): 3.19 ± 1.3 mM
self-cleavage kobs at 640 uM GlcN6P (glucosamine-6-phosphate [6]): 6.63e-05 ± 1.2e-05 s⁻¹
self-cleavage kobs at 2500 uM GlcN6P (glucosamine-6-phosphate [7]): 0.000114 ± 2.1e-05 s⁻¹
self-cleavage kobs at 10000 uM GlcN6P (glucosamine-6-phosphate [3]): 0.000259 ± 3.2e-05 s⁻¹

G32C A39U
kcat (glucosamine-6-phosphate [1]): 6.89e-05 ± 3.3e-06 s⁻¹
KM (glucosamine-6-phosphate [2]): 9.27 ± 0.88 mM
self-cleavage kobs at 10000 uM GlcN6P (glucosamine-6-phosphate [3]): 3.58e-05 ± 6.1e-06 s⁻¹

U31G G60A
kcat (glucosamine-6-phosphate [1]): 1.46e-05 ± 6.5e-06 s⁻¹

A33U U57A
kcat (glucosamine-6-phosphate [1]): < 1e-05 s⁻¹

G37A C70A
kcat (glucosamine-6-phosphate [1]): 1.38e-05 ± 4.2e-06 s⁻¹
self-cleavage kobs at 40 uM GlcN6P (glucosamine-6-phosphate [4]): < 1e-05 s⁻¹

G37A C70U
kcat (glucosamine-6-phosphate [1]): 0.00286 ± 0.00083 s⁻¹
KM (glucosamine-6-phosphate [2]): 3.8 ± 1.5 mM
self-cleavage kobs at 40 uM GlcN6P (glucosamine-6-phosphate [4]): 4.27e-05 ± 6.4e-06 s⁻¹
self-cleavage kobs at 160 uM GlcN6P (glucosamine-6-phosphate [5]): 9.55e-05 ± 1.5e-05 s⁻¹
self-cleavage kobs at 640 uM GlcN6P (glucosamine-6-phosphate [6]): 0.000383 ± 4.9e-05 s⁻¹
self-cleavage kobs at 2500 uM GlcN6P (glucosamine-6-phosphate [7]): 0.0018 ± 0.00029 s⁻¹
self-cleavage kobs at 10000 uM GlcN6P (glucosamine-6-phosphate [3]): 0.00199 ± 0.00021 s⁻¹

A36U G38U
kcat (glucosamine-6-phosphate [1]): < 1e-05 s⁻¹
self-cleavage kobs at 10000 uM GlcN6P (glucosamine-6-phosphate [3]): < 1e-05 s⁻¹

A36U G38A
kcat (glucosamine-6-phosphate [1]): < 1e-05 s⁻¹

G32U A42C G51C C67U
kcat (glucosamine-6-phosphate [1]): 1.49e-05 ± 6.1e-07 s⁻¹
KM (glucosamine-6-phosphate [2]): 3.62 ± 0.38 mM

A33U C61U
kcat (glucosamine-6-phosphate [1]): < 1e-05 s⁻¹
self-cleavage kobs at 640 uM GlcN6P (glucosamine-6-phosphate [6]): < 1e-05 s⁻¹
